In the Human Domainome abundance scans (Beltran et al. 2025) one finds abundance fitness data, which are given here for 34 variants.

B1: Apoptosis-associated speck-like protein containing a CARD, residues 114 to 194; numbered along this chain, Q9ULZ3 (parent)
chain: FIDQHRAALIARVTNVEWLLDALYGKVLTDEQYQAVRAEPTNPSKMRKLFSFTPAWNWTCKDLLLQALRESQSYLVEDLER

± gives the uncertainty stated by the source.

The variants in this data set derive from B1. As to the kind of experiment: abundance fitness (aPCA) (normalised: wild type 0, dead -1); higher = more abundant; growth selection in yeast, the domain comes from the species named. The note with it: Homo sapiens.
As to FIDQHRAALIARVTNVEWLLDALYGKVLTDEQYQAVRAEPTNPSKMRKLFSFTPAWNWTCKDLLQQALRESQSYLVEDLER, the abundance fitness was -0.812 ± 0.18. The same measure for FIDQHRAALYARVTNVEWLLDALYGKVLTDEQYQAVRAEPTNPSKMRKLFSFTPAWNWTCKDLLLQALRESQSYLVEDLER: -0.54 ± 0.2; for FIDQHRAALIARVTNVEWLLDALYGKVLTDEQYQAVRAEPTNPWKMRKLFSFTPAWNWTCKDLLLQALRESQSYLVEDLER: -0.531 ± 0.073; for FIDQHRAALIARVTNVEWLLDALYGKVLTDEQYQAVRAEPTNPKKMRKLFSFTPAWNWTCKDLLLQALRESQSYLVEDLER: -0.265 ± 0.1.

With FIDQHRAALIARVTNVEWLLDALYGKVLTDEQYQAVRAEPTNPIKMRKLFSFTPAWNWTCKDLLLQALRESQSYLVEDLER, the abundance fitness was -0.398 ± 0.33. Turning to FIDQHRAALIARVTNVEWLLDALYGKVLTDEWYQAVRAEPTNPSKMRKLFSFTPAWNWTCKDLLLQALRESQSYLVEDLER, the abundance fitness is -0.873 ± 0.14.

FIDQHRAALIARVTNVEWLLDCLYGKVLTDEQYQAVRAEPTNPSKMRKLFSFTPAWNWTCKDLLLQALRESQSYLVEDLER: the abundance fitness was -0.127 ± 0.092. Consider FIDQHRAALIARVTNVEWLLDALYGKVLTDEQYQAFRAEPTNPSKMRKLFSFTPAWNWTCKDLLLQALRESQSYLVEDLER, for which the abundance fitness is -0.548 ± 0.12. As for FIDQHAAALIARVTNVEWLLDALYGKVLTDEQYQAVRAEPTNPSKMRKLFSFTPAWNWTCKDLLLQALRESQSYLVEDLER, the abundance fitness is -0.074 ± 0.059. As for FIDQHEAALIARVTNVEWLLDALYGKVLTDEQYQAVRAEPTNPSKMRKLFSFTPAWNWTCKDLLLQALRESQSYLVEDLER, the abundance fitness is -0.141 ± 0.084. With FIDQHRAALIARVTNVEWLLDALYGKVLTDEQYQAVRAEPTNPSKMRKLFSFTPAWNWTCKDLLLQALRTSQSYLVEDLER, the abundance fitness was -0.181 ± 0.1. Turning to FIDQHRAALIARVTNVEWLLDALYGKCLTDEQYQAVRAEPTNPSKMRKLFSFTPAWNWTCKDLLLQALRESQSYLVEDLER, the abundance fitness is 0.002 ± 0.082. On to FIDQHRAALIARVTNVEWLLDALYGKLLTDEQYQAVRAEPTNPSKMRKLFSFTPAWNWTCKDLLLQALRESQSYLVEDLER, for which the abundance fitness is -0.65 ± 0.071.

In the case of FIDQHRAALIARVTNVEWLLDALYGKWLTDEQYQAVRAEPTNPSKMRKLFSFTPAWNWTCKDLLLQALRESQSYLVEDLER, the abundance fitness is -0.734 ± 0.13.

For the variant FIDQHRAALIARVTNVEWLLDALYGKSLTDEQYQAVRAEPTNPSKMRKLFSFTPAWNWTCKDLLLQALRESQSYLVEDLER, the abundance fitness was -0.583 ± 0.074. As for FIDQHRAALIARVTNVEWLLDALYGKVLTDEQYQAVRAEPWNPSKMRKLFSFTPAWNWTCKDLLLQALRESQSYLVEDLER, the abundance fitness is -0.653 ± 0.098. Take FIDQHRAALIARVTNVEWLLDALYGKVLTDEQYQAVRAEPTNPSKMRKLFSFTPAWKWTCKDLLLQALRESQSYLVEDLER: the abundance fitness was -0.492 ± 0.12. For FIDQHRAALIARVTNVEWLLDALYGKVLTDEQYQAVRAEPTNPSKMRKLFSFTPAWIWTCKDLLLQALRESQSYLVEDLER, the abundance fitness was -0.311 ± 0.12. As for FIDQHRAALIARVTNVEWMLDALYGKVLTDEQYQAVRAEPTNPSKMRKLFSFTPAWNWTCKDLLLQALRESQSYLVEDLER, the abundance fitness was -0.787 ± 0.12. The same measure for FIDQHRAALIARVTNVEKLLDALYGKVLTDEQYQAVRAEPTNPSKMRKLFSFTPAWNWTCKDLLLQALRESQSYLVEDLER: 0.186 ± 0.089; for FIDQHRAALIARVTNVEWLLDALYGKVLTDEQYQAVRAEPTNPSKMRKLFSFTPAWNWTEKDLLLQALRESQSYLVEDLER: 0.285 ± 0.064. In the case of FIDQHRAALIARVTNVEWLLDALYGKVLTDEQYQAVRAEPTNPSKMRKLFSFTPAWNWTCKDLLLQALRESQSFLVEDLER, the abundance fitness is -0.341 ± 0.13. With FIDQHRAALIARVTNVEWLLDALYGYVLTDEQYQAVRAEPTNPSKMRKLFSFTPAWNWTCKDLLLQALRESQSYLVEDLER, the abundance fitness was -0.658 ± 0.3. Regarding FIDQHRAALIARVTNVEWLLDALYGIVLTDEQYQAVRAEPTNPSKMRKLFSFTPAWNWTCKDLLLQALRESQSYLVEDLER, the abundance fitness was -0.094 ± 0.11. For FIDQHRAALIARVTNVEWLLDALYGKVLTDKQYQAVRAEPTNPSKMRKLFSFTPAWNWTCKDLLLQALRESQSYLVEDLER, the abundance fitness is -0.65 ± 0.21. To FIDQHRASLIARVTNVEWLLDALYGKVLTDEQYQAVRAEPTNPSKMRKLFSFTPAWNWTCKDLLLQALRESQSYLVEDLER belongs -0.112 ± 0.052; to FIDQHRAALIARVTNVEWLLDALYGKVLTDEQYQAVRAEPTNPSKMRMLFSFTPAWNWTCKDLLLQALRESQSYLVEDLER, -0.221 ± 0.079; to FIDQHRAALIARVTNVEWLLDALYVKVLTDEQYQAVRAEPTNPSKMRKLFSFTPAWNWTCKDLLLQALRESQSYLVEDLER, -0.779 ± 0.097.

Consider FIDQHRAALIARVTNVEWLLDALYGKVLTDEQYQAVRAEPTNPSKMRKLFSFTPAWNWTCKDLLLQALRESQSYLVCDLER, for which the abundance fitness is -0.616 ± 0.18. FIDQFRAALIARVTNVEWLLDALYGKVLTDEQYQAVRAEPTNPSKMRKLFSFTPAWNWTCKDLLLQALRESQSYLVEDLER: the abundance fitness was -0.553 ± 0.12. In the case of FIDQHRAALIARVTNVEWLLDALYGKVLTDEQYQAVRAEPTNPSKMRKLFSFTPAWNWTCKDNLLQALRESQSYLVEDLER, the abundance fitness was -0.556 ± 0.27. On to FIDQHRAALIARVTNVEWLLDALYGKVLTDEQYQAVRAEPTNPSKMRKLFSFTPAWNWTCKDMLLQALRESQSYLVEDLER, for which the abundance fitness was determined as 0.056 ± 0.095.

For the variant FIDQHRAALIARVTNVEWLLDALYGKVLTDEQYQAVRAEPTNPSKMRKLFIFTPAWNWTCKDLLLQALRESQSYLVEDLER, the abundance fitness was -0.904 ± 0.32. On to FIDQHRAALIARVTNVEWLLDALKGKVLTDEQYQAVRAEPTNPSKMRKLFSFTPAWNWTCKDLLLQALRESQSYLVEDLER, for which the abundance fitness is 0.255 ± 0.061.
